Molecular target: the molecule itself
Assay: native MS

B1: yeast alcohol dehydrogenase (enzyme, UniProt P00330 1-348, looked up)
chain: MSIPETQKGVIFYESHGKLEYKDIPVPKPKANELLINVKYSGVCHTDLHAWHGDWPLPVKLPLVGGHEGAGVVVGMGENVKGWKIGDYAGIKWLNGSCMACEYCELGNESNCPHADLSGYTHDGSFQQYATADAVQAAHIPQGTDLAQVAPILCAGITVYKALKSANLMAGHWVAISGAAGGLGSLAVQYAKAMGYRVLGIDGGEGKEELFRSIGGEVFIDFTKEKDIVGAVLKATDGGAHGVINVSVSEAAIEASTRYVRANGTTVLVGMPAGAKCCSDVFNQVVKSISIVGSYVGNRADTREALDFFARGLVKSPIKVVGLSTLPEIYEKMEKGQIVGRYVVDTSK
stoichiometry N: 4

B2: rabbit muscle pyruvate kinase (enzyme)
chain: not shown
modifications: acetylation of the N-terminal serine (after removal of the initiator methionine)
stoichiometry N: 4
